Target: T1, Zea mays ZMET2 (residues 130-912), core fragment harboring the CD, BAH and MTase domains (Zea mays, UniProt Q9AXT8 130-912, in the crystallised complex C517 is covalently linked to the target 5-fluorocytosine (fC10) of the hmCAG DNA)
T1 construct: ZMET2, chromomethylase, CMT3 ortholog of Zea mays, residues 130-912; in the enzymatic assays and the EMSA the free protein was used; also called WT ZMET2; source: E. coli BL21 DE3 (RIL), purified (Ni-NTA, Heparin HP, Superdex 200); not shown: His6-SUMO, N-terminal, cleaved
T1 sequence (looked up): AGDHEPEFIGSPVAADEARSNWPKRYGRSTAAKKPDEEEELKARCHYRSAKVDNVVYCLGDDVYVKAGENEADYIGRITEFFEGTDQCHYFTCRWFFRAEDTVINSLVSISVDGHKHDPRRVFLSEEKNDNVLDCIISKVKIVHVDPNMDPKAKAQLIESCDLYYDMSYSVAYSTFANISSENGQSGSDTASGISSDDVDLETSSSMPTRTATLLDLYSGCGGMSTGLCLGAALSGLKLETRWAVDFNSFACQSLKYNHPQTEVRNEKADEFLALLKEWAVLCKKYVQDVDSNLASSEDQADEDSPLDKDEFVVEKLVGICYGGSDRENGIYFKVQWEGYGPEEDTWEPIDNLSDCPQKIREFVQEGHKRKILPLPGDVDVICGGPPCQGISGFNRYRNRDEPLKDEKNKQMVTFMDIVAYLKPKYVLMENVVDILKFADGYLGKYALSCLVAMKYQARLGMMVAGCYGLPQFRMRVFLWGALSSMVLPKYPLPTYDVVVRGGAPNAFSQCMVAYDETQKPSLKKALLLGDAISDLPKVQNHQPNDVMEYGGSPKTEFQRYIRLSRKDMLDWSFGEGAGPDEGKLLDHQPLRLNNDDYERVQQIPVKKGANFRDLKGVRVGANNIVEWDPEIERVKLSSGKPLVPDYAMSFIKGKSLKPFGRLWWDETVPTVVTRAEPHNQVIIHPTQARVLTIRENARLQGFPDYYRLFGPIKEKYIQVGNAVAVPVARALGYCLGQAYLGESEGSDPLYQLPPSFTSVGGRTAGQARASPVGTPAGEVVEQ
Test: crystal structure; covalent ZMET2-hmCAG DNA complex with the H3_(1–32)Kc9me2 peptide and SAH; sitting drop at 4 °C, 0.1 M sodium citrate pH 5.5, 15% w/v polyethylene glycol 6000
Settings: both partners purified

B1: histone H3 peptide residues 1-32 harboring the Kc9me2 modification (methyl-lysine analog of H3K9me2) (peptide)
peptide: not shown
modifications: Kc9me2: cysteine 9 (K9C) alkylated with (2-chloroethyl)-dimethylammonium chloride to the methyl-lysine analog of dimethyl-lysine
notes: Histone H3 residues 1-32; The removal of the His6-SUMO tag is told only through 'initial purification as described above'; also called H3_(1–32)Kc9me2; H3Kc9me2; source: E. coli BL21 DE3 (RIL), purified (HiTrap SP HP), alkylated, purified again (HiTrap SP HP); not shown: His6-SUMO, N-terminal, cleaved
  stoichiometry N: 2 peptides per ZMET2 complex

From paper PMC9256654, “Mechanistic basis for maintenance of CHG DNA methylation in plants” (Nature Communications, 2022)
